# Paper PMC9687425, “Global Regulator AdpA_1075 Regulates Morphological Differentiation and Ansamitocin Production in Actinosynnema pretiosum subsp. auranticum”
# T1: AdpA_1075 (Actinosynnema pretiosum subsp. …, UniProt A0A290Z1C2 1-322)
# T1 sequence: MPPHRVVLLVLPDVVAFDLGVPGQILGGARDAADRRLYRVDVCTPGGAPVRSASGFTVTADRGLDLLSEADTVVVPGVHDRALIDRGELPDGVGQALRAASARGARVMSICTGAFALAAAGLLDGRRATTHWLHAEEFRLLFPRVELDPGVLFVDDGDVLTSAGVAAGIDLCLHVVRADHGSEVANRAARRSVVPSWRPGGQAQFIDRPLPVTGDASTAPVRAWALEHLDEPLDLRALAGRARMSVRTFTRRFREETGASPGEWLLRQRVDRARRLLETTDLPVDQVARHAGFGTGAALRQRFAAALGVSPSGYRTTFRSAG
# What was measured:
# AdpA_1075 [1] = target: T1, AdpA_1075; assay: EMSA; protein concentration-dependent shift; excess unlabeled specific DNA competes; Beyotime Chemiluminescent EMSA Kit (buffer, salt and pH not stated); 20 ng biotin-labeled probe, 10 min at room temperature, 5% polyacrylamide gel; conditions: protein: recombinant; tags: His6 (pET-28a NdeI/HindIII; the reverse primer keeps the stop codon, so N-terminal tag; named AdpA_1075-His6 in the text); chain copies: 2; label: 5' biotin on strand 1; blunt
# AdpA_1075 [2] = target: T1, AdpA_1075; assay: EMSA; shifted with 1000 nM protein; excess unlabeled specific DNA competes; Beyotime Chemiluminescent EMSA Kit (buffer, salt and pH not stated); 20 ng biotin-labeled probe, 10 min at room temperature, 5% polyacrylamide gel; conditions: protein: recombinant; tags: His6 (pET-28a NdeI/HindIII; the reverse primer keeps the stop codon, so N-terminal tag; named AdpA_1075-His6 in the text); chain copies: 2; label: 5' biotin on strand 1; blunt
binder,measurement,setting,value
PssgA (dsDNA) DNA 1: GTGTTGGCCGGAACCACGGTGTTGGCCGGAACCACGGTGTTGGCCGGAACCACG DNA 2: CGTGGTTCCGGCCAACACCGTGGTTCCGGCCAACACCGTGGTTCCGGCCAACAC,binding result,AdpA_1075 [1],binds
Pasm28 (dsDNA) DNA 1: CGCAGTGGCCCGAACGGGTCCGCAGTGGCCCGAACGGGTCCGCAGTGGCCCGAACGGGTC DNA 2: GACCCGTTCGGGCCACTGCGGACCCGTTCGGGCCACTGCGGACCCGTTCGGGCCACTGCG,binding result,AdpA_1075 [2],binds
